Among the data in patent US20200109446A1 are Cas3 nuclease activity and percent of Cascade complexes converted to the faster-migrating species (Cascade lacking Cse1) values, retold here.

Data set [1] deals with T. fusca Type I-E CRISPR-Cas (Cascade) effector complex.
Data set [2] deals with Cascade lacking the Cse1 subunit (T. fusca). The data set can be described thus: EMSA, target DNA with a changed PAM and a mismatch at position +1. In general terms: A gel shift assay detects complexes by their altered migration in electrophoresis.
Data set [3] shares this target. In words: EMSA, target DNA with a mismatch to the crRNA at position +1.

For the substance T. fusca Cas3, the Cas3 nuclease activity result in data set [1] is “impaired Cas3 recruitment also reduced Cas3 nuclease activity when ATP and Co^+2 were added to the reaction mixtures”.

For free Cse1 (T. fusca), the percent of Cascade complexes converted to the faster-migrating species (Cascade lacking Cse1) was 100% in data set [2] and 80% in data set [3].
